According to article PMC10008561, “Molecular mechanism of biased signaling at the kappa opioid receptor” (Nature Communications, 2023):

Target: T1, BRIL-KOR crystallization construct (human kappa-opioid receptor, residues 1-53 replaced by BRIL, C-terminal … (Homo sapiens, I135L | S324C))
T1 chain: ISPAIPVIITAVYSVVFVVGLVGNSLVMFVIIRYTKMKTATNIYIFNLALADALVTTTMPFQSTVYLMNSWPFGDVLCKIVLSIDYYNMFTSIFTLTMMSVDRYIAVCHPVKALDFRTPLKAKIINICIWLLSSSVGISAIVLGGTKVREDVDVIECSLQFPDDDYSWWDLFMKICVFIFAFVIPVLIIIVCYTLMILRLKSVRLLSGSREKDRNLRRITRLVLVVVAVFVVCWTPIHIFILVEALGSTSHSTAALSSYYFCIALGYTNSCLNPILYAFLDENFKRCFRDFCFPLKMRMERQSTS
Assay: cell-based or functional assay

- increase of the binding affinity of nalfurafine in radioligand competition binding on KOR membranes in the presence of Nb39: 40 fold
B1: Nb39 (active-state stabilizing nanobody) (VHH)
VHH: QVQLVESGGGLVRPGGSLRLSCVDSERTSYPMGWFRRAPGKEREFVASITWSGIDPTYADSVADRFTTSRDVANNTLYLQMNSLKHEDTAVYYCAARAPVGQSSSPYDYDYWGQGTQVTVS
